Experimental findings from US20190024095A1 are described below.

This assay deals with CD19 on Raji B cells (UniProt P15391). The assay is described as follows: cell-based or functional assay.
Sequence of UniProt P15391 (P15391 20-556 limits assumed): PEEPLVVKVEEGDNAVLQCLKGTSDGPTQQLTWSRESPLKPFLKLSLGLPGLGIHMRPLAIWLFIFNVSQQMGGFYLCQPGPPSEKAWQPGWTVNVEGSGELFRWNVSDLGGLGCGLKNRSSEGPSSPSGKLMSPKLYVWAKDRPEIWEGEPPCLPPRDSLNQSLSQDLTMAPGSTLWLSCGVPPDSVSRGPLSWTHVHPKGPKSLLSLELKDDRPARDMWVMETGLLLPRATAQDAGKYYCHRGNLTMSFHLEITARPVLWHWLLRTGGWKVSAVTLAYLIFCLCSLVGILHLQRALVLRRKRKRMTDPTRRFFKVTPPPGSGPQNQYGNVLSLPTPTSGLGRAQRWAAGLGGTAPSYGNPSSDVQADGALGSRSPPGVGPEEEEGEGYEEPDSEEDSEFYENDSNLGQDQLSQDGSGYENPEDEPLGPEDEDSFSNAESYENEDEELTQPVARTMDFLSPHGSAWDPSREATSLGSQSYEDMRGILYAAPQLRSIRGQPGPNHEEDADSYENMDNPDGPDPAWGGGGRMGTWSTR

As for “anti-CD19 CAR (anti-CD19 CAR cassette as described in WO 2012/079000), expressed on transduced T-cells”, the change in IL-12 expression (NFAT promoter, 3'-UTR not responsive to CAR stimulation) is 50 fold; the change in IL-12 expression (NFAT promoter, RDE1 (Gold1)) turned out to be 168 fold; the change in IL-12 expression (minP promoter, RDE1 (Gold1)) turned out to be 6.3 fold; the change in activated cells in the population (CD25, CD69; GFP-RDE1 bicistronic construct) lay within 0.9 to 84.8%. Further, the change in activated cells in the population (CD25, CD69; GFP-RDE2.1 bicistronic construct) is 3.9 to 12.1%; the change in activated cells in the population (CD25, CD69; doubly transduced T-cells) lay in the range of 0.9 to 56.9%; the change in activated cells in the population (CD25, CD69; singly transduced, bicistronic construct) lay in the range of 3.6 to 5.8%; the increase in bioluminescence (MinP promoter, RDE1) was 4.1 fold. The substance further showed an increase in bioluminescence (MinP promoter, RDE2) of 1.8 fold; an increase in bioluminescence (MinP promoter, RDE3) of 1.4 fold; an increase in bioluminescence (NFAT promoter, RDE1) of 8.5 fold; an increase in bioluminescence (NFAT promoter, RDE2) of 3.1 fold. The substance also yielded an increase in bioluminescence (NFAT promoter, RDE3) of 1.3 fold; an increase in fluorescence (GFP-RDE1) of 6.5%; an increase in fluorescence (GFP-RDE2, doubly transduced T-cells) of 19.5 to 42.5%.
